What was measured:
MCF-7 cells [1] = assay: Cell death according to incubation time per light irradiation time (SYTOX Green/DAPI); assay type: cell-based, human; details: MCF-7, protein 10 μM
Protocol: MCF-7 cells were seeded at 5×10^5 cells/mL in a 96-well plate (SPL Cell Culture Plate, 96 well (SPL, Cat #30096)), and cultured at 37° C. for 24 hours (overnight). After the culture for 24 hours, the cells were washed with FBS & Phenol red-free media (RPMI, Well Gene., Korea, Cat #LM011-02), and 100 μL of an FBS-free medium containing the purified protein (final concentration: 10 μM) was added, followed by reaction at 37° C. for 24 hours.
After the reaction for 24 hours, the cells were washed with FBS & Phenol red-free media (RPMI), and then 100 μL of FBS & Phenol red-free media (RPMI) was added again. After light irradiation at 10 mW/cm^2 over time, the cells were incubated at 37° C.
After incubation, 50 μL of SYTOX Green (final concentration: 261 nM) staining DNA of dead cells and 10 μL of DAPI (Vector Laboratories Inc., USA) staining DNA of live cells were added, followed by reaction for 5 minutes. Cell death was confirmed by detecting KillerRed, SYTOX Green and DAPI fluorescence according to the light irradiation time for cells using a confocal microscope.

MCF-7 = assay: Cell death after light irradiation by cell type (SYTOX Green/DAPI); assay type: cell-based, human; details: MCF-7, protein 10 μM, light 10 mW/cm^2 for 10 minutes
Protocol: Data on each breast cancer cell line is as follows (Table 4): MCF-7: (Origin: breast, mammary gland, Species: human—person, Growth pattern: monolayer, Media: RPMI1640 with L-glutamine (300 mg/L), 25 mM HEPES and 25 mM NaHCO3, 90%; heat inactivated fetal bovine serum (FBS), 10%), purchased from Korean Cell Line Bank (KCLB).
(§1) The cells were seeded at 5×10^5 cells/mL in 96-well plates (SPL Cell Culture Plate, 96 well (SPL, Cat #30096)), and cultured at 37° C. for 24 hours (overnight). After the culture for 24 hours, the cells were washed with FBS & phenol red-free media, and 100 μL of FBS & phenol red-free media containing a purified protein (final concentration: 10 μM) was added, followed by reaction at 37° C. for 24 hours. After the reaction for 24 hours, the cells were washed with FBS & phenol red-free media, and 100 μL of FBS & phenol red-free media was added.
(§2) After irradiation with light at 10 mW/cm^2 for 10 minutes, 50 μL (final concentration: 261 nM) of SYTOX Green staining DNA of dead cells was added, followed by reaction at 37° C. for 30 minutes. 10 μL of DAPI staining DNA of live cells was added, followed by reaction for 5 minutes. Cell death was confirmed by observing KillerRed, SYTOX Green and DAPI fluorescence using a confocal microscope.

MCF-7 cells [2] = assay: Cell death according to presence of serum and protein concentration (Co-h); assay type: cell-based, human; details: MCF-7, serum-free media or serum-containing media, 12 hours, Co-h 150 μM
Protocol: MCF-7 cells were seeded at 5×10^5 cells/mL in a 96-well plate (SPL Cell Culture Plate, 96 well (SPL, Cat #30096)), and cultured at 37° C. for 24 hours (overnight). After the culture for 24 hours, the cells were washed with FBS & Phenol red-free media (RPMI), and 100 μL of FBS & Phenol red-free media (RPMI) or FBS media (RPMI) containing a predetermined concentration of purified protein, followed by reaction at 37° C. for 12 hours.
After the reaction for […], the cells were washed with FBS & Phenol red-free media (RPMI), 100 μL of FBS & Phenol red-free media (RPMI) containing a Co-h substrate solution (final concentration: 150 μM) and SYTOX Green (final concentration: 261 nM) staining DNA of dead cells was added, followed by reaction at 37° C. for 30 minutes.
After the reaction, 10 μL of DAPI staining DNA of live cells was added, followed by reaction for 5 minutes. Cell death was confirmed by observing KillerRed, SYTOX Green and DAPI fluorescence using a confocal microscope.

MDA-MB-231 = assay: Cell death after light irradiation by cell type (SYTOX Green/DAPI); assay type: cell-based, human; details: MDA-MB-231, protein 10 μM, light 10 mW/cm^2 for 10 minutes
Protocol: MDA-MB-231: (Origin: breast, mammary gland, Species: human—person, Growth pattern: monolayer, Media: DMEM with glucose (4.5 g/L), L-glutamine and sodium pyruvate, 90%; heat inactivated fetal bovine serum (FBS), 10%), purchased from Korean Cell Line Bank (KCLB).
as §1, §2

[3] = Bioluminescence assay of purified proteins with Co-h substrate (BRET); assay type: physicochemical; details: protein 1 μM, Co-h 50 μM, 1×PBS
Protocol: In addition, 100 μL of buffer (1×PBS) containing the protein purified in Example 1 (final concentration: 1 μM) was dispensed into a 96-well plate (SPL Cell Culture Plate, 96 well (SPL, Cat #30196)), and bioluminescence assay was then performed using 50 μL of buffer (1×PBS) containing a Co-h substrate solution (final concentration: 50 μM), which is a wild-type 2-deoxy derivative. Bioluminescence intensity was immediately measured at a wavelength of 300 to 800 nm using a Thermo Scientific™ Varioskan™ Flash Multimode Reader.

B1: RLuc8.6-KR-LP: fusion protein of RLuc8.6, KillerRed and lead peptide WLEAAYQRFL, 71 kDa (protein)
chain: MRGSHHHHHHGMASMTGGQQMGRDLYDDDDKDPMASKVYDPEQRKRMITGPQWWARCKQMNVLDSFINYYDSEKHAENAVIFLHGNATSSYLWRHVVPHIEPVARCIIPDLIGMGKSGKSGNGSYRLLDHYKYLTAWFELLNLPKKIIFVGHDWGSALAFHYAYEHQDRIKAIVHMESVVDVIESWMGWPDIEEELALIKSEEGEKMVLENNFFVETLLPSKIMRKLEPEEFAAYLEPFKEKGEVRRPTLSWPREIPLVKGGKPDVVQIVRNYNAYLRASDDLPKLFIESDPGFFYNAIVEGAKKFPNTEFVKVKGLHFLQEDAPDEMGKYIKSFVERVLKNEQEFGGGMLCCMRRTKQVEKNDEDQKISEGGPALFQSDMTFKIFIDGEVNGQKFTIVADGSSKFPHGDFNVHAVCETGKLPMSWKPICHLIQYGEPFFARYPDGISHFAQECFPEGLSIDRTVRFENDGTMTSHHTYELDDTCVVSRITVNCDGFQPDGPIMRDQLVDILPNETHMFPHGPNAVRQLAFIGFTTADGGLMMGHFDSKMTFNGSRAIEIPGPHFVTIITKQMRDTSDKRDHVCQREVAYAHSVPRITSAIGSDEDGGGWLEAAYQRFL
modifications: pRSET-RLuc8.6-KillerRed-Lead peptide
**Q.** For B1, which “cell incubation time after which the number of cells stained with SYTOX Green increased” value (MCF-7 cells [1]; light 10 mW/cm^2 for 1 minute) is on record?
**A.** over 1 hour

**Q.** And the “cell incubation time from which the number of cells stained with SYTOX Green increased” value (MCF-7 cells [1]; light 10 mW/cm^2 for 5 minutes or 10 minutes)?
**A.** approximately 30 minutes

**Q.** What about the “cell death after light irradiation” value (MCF-7) of the same molecule?
**A.** killing the three types of cancer cell lines

**Q.** And the “number of cells stained with SYTOX Green according to protein concentration” value (MCF-7 cells [2])?
**A.** the higher the number of cells stained with SYTOX Green

**Q.** What about the “cell death after light irradiation” value (MDA-MB-231) of the same molecule?
**A.** killing the three types of cancer cell lines

B2: KR: first protein KillerRed, ROS-generating protein (superoxide), expressed from pRSET-KillerRed, 31 kDa (protein)
chain: MRGSHHHHHHGMASMTGGQQMGRDLYDDDDKDPMLCCMRRTKQVEKNDEDQKISEGGPALFQSDMTFKIFIDGEVNGQKFTIVADGSSKFPHGDFNVHAVCETGKLPMSWKPICHLIQYGEPFFARYPDGISHFAQECFPEGLSIDRTVRFENDGTMTSHHTYELDDTCVVSRITVNCDGFQPDGPIMRDQLVDILPNETHMFPHGPNAVRQLAFIGFTTADGGLMMGHFDSKMTFNGSRAIEIPGPHFVTIITKQMRDTSDKRDHVCQREVAYAHSVPRITSAIGSDED
modifications: pRSET-KillerRed
notes: first protein KillerRed, ROS-generating protein (superoxide), expressed from pRSET-KillerRed, 31 kDa
**Q.** With B2 as the molecule, how does the “emission in bioluminescence assay (BRET)” value [3] read?
**A.** 610 nm
